Source: patent US10919943B2, “Mutant proteins enabling agrochemical control of plant gene expression” (The Regents of the University of California, priority 2016, dated 2021)

Test system: HAB1
Assay: Yeast two hybrid of pBD-PYR1 site saturation mutants with pACT-HAB1 on 10 μM ABA, β-galactosidase staining
Type: cell-based, Arabidopsis
Set-up: key: x: Mutations in PYR1 that disrupt ABA-induced binding to PYR1 to HAB1
Conditions: S. cerevisiae Y190, 10 μM ABA; dead = lack of visible staining in comparison to wild type control
Excerpt: To systematically identify mutations in PYR1 that disrupt its binding to HAB1, we utilized a collection of saturating mutations that contain all possible single amino acid substitutions in 24 conserved interface residues involved in binding HAB1, which was previously constructed for the purpose of engineering constitutively active ABA receptor variants (Mosquna et al., 2011). The interface residues previously mutagenized in this collection are the following: H60, F61, I62, K63, I84, S85, G86, L87, P88, A89, H115, R116, L117, P148, G150, N151, D154, D155, T156, M158, F159, T162, L166, K170. This set was made by mutagenizing a pBD-PYR1 template that encodes a GAL4-DNA binding domain fusion to PYR1, which can be used to assess receptor-HAB1 binding in S. cerevisiae strains co-transformed with pACT-HAB1, which expresses a GAL4 activation domain fusion to HAB1. Mutant pBD-PYR1 clones from the collection are maintained in S. cerevisiae strain Y190 co-transformed with pACT-HAB1. The test strains were spotted onto agar plates containing synthetic dextrose dropout media lacking leucine and tryptophan [SD (-Leu, -Trp)] medium supplemented with 10 μM ABA. After incubating the test plates at 30° C. for two days, colonies were chloroform lysed and stained to reveal […] expression levels and “dead” mutants were defined by lack of visible staining in comparison to a wild type control. This effort defined 237 mutations that disrupt ABA-induced binding of PYR1 to HAB1 (Table 1). Premade yeast drop out supplements (Clontech) were utilized in this and other examples for media preparation, amino acids and other standard chemicals were purchased from Sigma-Aldrich (USA). The naturally occurring (+)-ABA isomer was used in all experiments and purchased from Biosynth Ag (Switzerland).

Row | Molecule | Mutations in PYR1 that disrupt ABA-induced binding to PYR1 to HAB1
1 | A89S: PYR1 mutant (protein, UniProt O49686 1-191, looked up, variant A89S) Abscisic acid receptor PYR1: MPSELTPEERSELKNSIAEFHTYQLDPGSCSSLHAQRIHAPPELVWSIVRRFDKPQTYKHFIKSCSVEQNFEMRVGCTRDVIVISGLPSNTSTERLDILDDERRVTGFSIIGGEHRLTNYKSVTTVHRFEKENRIWTVVLESYVVDMPEGNSEDDTRMFADTVVKLNLQKLATVAEAMARNSGDGSGSQVT | x
2 | A89T: PYR1 mutant (protein, UniProt O49686 1-191, looked up, variant A89T) Abscisic acid receptor PYR1: MPSELTPEERSELKNSIAEFHTYQLDPGSCSSLHAQRIHAPPELVWSIVRRFDKPQTYKHFIKSCSVEQNFEMRVGCTRDVIVISGLPTNTSTERLDILDDERRVTGFSIIGGEHRLTNYKSVTTVHRFEKENRIWTVVLESYVVDMPEGNSEDDTRMFADTVVKLNLQKLATVAEAMARNSGDGSGSQVT | x
3 | A89V: PYR1 mutant (protein, UniProt O49686 1-191, looked up, variant A89V) Abscisic acid receptor PYR1: MPSELTPEERSELKNSIAEFHTYQLDPGSCSSLHAQRIHAPPELVWSIVRRFDKPQTYKHFIKSCSVEQNFEMRVGCTRDVIVISGLPVNTSTERLDILDDERRVTGFSIIGGEHRLTNYKSVTTVHRFEKENRIWTVVLESYVVDMPEGNSEDDTRMFADTVVKLNLQKLATVAEAMARNSGDGSGSQVT | x
4 | A89C: PYR1 mutant (protein, UniProt O49686 1-191, looked up, variant A89C) Abscisic acid receptor PYR1: MPSELTPEERSELKNSIAEFHTYQLDPGSCSSLHAQRIHAPPELVWSIVRRFDKPQTYKHFIKSCSVEQNFEMRVGCTRDVIVISGLPCNTSTERLDILDDERRVTGFSIIGGEHRLTNYKSVTTVHRFEKENRIWTVVLESYVVDMPEGNSEDDTRMFADTVVKLNLQKLATVAEAMARNSGDGSGSQVT | x
5 | A89Y: PYR1 mutant (protein, UniProt O49686 1-191, looked up, variant A89Y) Abscisic acid receptor PYR1: MPSELTPEERSELKNSIAEFHTYQLDPGSCSSLHAQRIHAPPELVWSIVRRFDKPQTYKHFIKSCSVEQNFEMRVGCTRDVIVISGLPYNTSTERLDILDDERRVTGFSIIGGEHRLTNYKSVTTVHRFEKENRIWTVVLESYVVDMPEGNSEDDTRMFADTVVKLNLQKLATVAEAMARNSGDGSGSQVT | x
6 | A89D: PYR1 mutant (protein, UniProt O49686 1-191, looked up, variant A89D) Abscisic acid receptor PYR1: MPSELTPEERSELKNSIAEFHTYQLDPGSCSSLHAQRIHAPPELVWSIVRRFDKPQTYKHFIKSCSVEQNFEMRVGCTRDVIVISGLPDNTSTERLDILDDERRVTGFSIIGGEHRLTNYKSVTTVHRFEKENRIWTVVLESYVVDMPEGNSEDDTRMFADTVVKLNLQKLATVAEAMARNSGDGSGSQVT | x
7 | A89E: PYR1 mutant (protein, UniProt O49686 1-191, looked up, variant A89E) Abscisic acid receptor PYR1: MPSELTPEERSELKNSIAEFHTYQLDPGSCSSLHAQRIHAPPELVWSIVRRFDKPQTYKHFIKSCSVEQNFEMRVGCTRDVIVISGLPENTSTERLDILDDERRVTGFSIIGGEHRLTNYKSVTTVHRFEKENRIWTVVLESYVVDMPEGNSEDDTRMFADTVVKLNLQKLATVAEAMARNSGDGSGSQVT | x
8 | A89F: PYR1 mutant (protein, UniProt O49686 1-191, looked up, variant A89F) Abscisic acid receptor PYR1: MPSELTPEERSELKNSIAEFHTYQLDPGSCSSLHAQRIHAPPELVWSIVRRFDKPQTYKHFIKSCSVEQNFEMRVGCTRDVIVISGLPFNTSTERLDILDDERRVTGFSIIGGEHRLTNYKSVTTVHRFEKENRIWTVVLESYVVDMPEGNSEDDTRMFADTVVKLNLQKLATVAEAMARNSGDGSGSQVT | x
9 | A89H: PYR1 mutant (protein, UniProt O49686 1-191, looked up, variant A89H) Abscisic acid receptor PYR1: MPSELTPEERSELKNSIAEFHTYQLDPGSCSSLHAQRIHAPPELVWSIVRRFDKPQTYKHFIKSCSVEQNFEMRVGCTRDVIVISGLPHNTSTERLDILDDERRVTGFSIIGGEHRLTNYKSVTTVHRFEKENRIWTVVLESYVVDMPEGNSEDDTRMFADTVVKLNLQKLATVAEAMARNSGDGSGSQVT | x
10 | A89I: PYR1 mutant (protein, UniProt O49686 1-191, looked up, variant A89I) Abscisic acid receptor PYR1: MPSELTPEERSELKNSIAEFHTYQLDPGSCSSLHAQRIHAPPELVWSIVRRFDKPQTYKHFIKSCSVEQNFEMRVGCTRDVIVISGLPINTSTERLDILDDERRVTGFSIIGGEHRLTNYKSVTTVHRFEKENRIWTVVLESYVVDMPEGNSEDDTRMFADTVVKLNLQKLATVAEAMARNSGDGSGSQVT | x
11 | A89K: PYR1 mutant (protein, UniProt O49686 1-191, looked up, variant A89K) Abscisic acid receptor PYR1: MPSELTPEERSELKNSIAEFHTYQLDPGSCSSLHAQRIHAPPELVWSIVRRFDKPQTYKHFIKSCSVEQNFEMRVGCTRDVIVISGLPKNTSTERLDILDDERRVTGFSIIGGEHRLTNYKSVTTVHRFEKENRIWTVVLESYVVDMPEGNSEDDTRMFADTVVKLNLQKLATVAEAMARNSGDGSGSQVT | x
12 | H115A: PYR1 mutant (protein, UniProt O49686 1-191, looked up, variant H115A) Abscisic acid receptor PYR1: MPSELTPEERSELKNSIAEFHTYQLDPGSCSSLHAQRIHAPPELVWSIVRRFDKPQTYKHFIKSCSVEQNFEMRVGCTRDVIVISGLPANTSTERLDILDDERRVTGFSIIGGEARLTNYKSVTTVHRFEKENRIWTVVLESYVVDMPEGNSEDDTRMFADTVVKLNLQKLATVAEAMARNSGDGSGSQVT | x
13 | H115L: PYR1 mutant (protein, UniProt O49686 1-191, looked up, variant H115L) Abscisic acid receptor PYR1: MPSELTPEERSELKNSIAEFHTYQLDPGSCSSLHAQRIHAPPELVWSIVRRFDKPQTYKHFIKSCSVEQNFEMRVGCTRDVIVISGLPANTSTERLDILDDERRVTGFSIIGGELRLTNYKSVTTVHRFEKENRIWTVVLESYVVDMPEGNSEDDTRMFADTVVKLNLQKLATVAEAMARNSGDGSGSQVT | x
14 | H115M: PYR1 mutant (protein, UniProt O49686 1-191, looked up, variant H115M) Abscisic acid receptor PYR1: MPSELTPEERSELKNSIAEFHTYQLDPGSCSSLHAQRIHAPPELVWSIVRRFDKPQTYKHFIKSCSVEQNFEMRVGCTRDVIVISGLPANTSTERLDILDDERRVTGFSIIGGEMRLTNYKSVTTVHRFEKENRIWTVVLESYVVDMPEGNSEDDTRMFADTVVKLNLQKLATVAEAMARNSGDGSGSQVT | x
15 | H115P: PYR1 mutant (protein, UniProt O49686 1-191, looked up, variant H115P) Abscisic acid receptor PYR1: MPSELTPEERSELKNSIAEFHTYQLDPGSCSSLHAQRIHAPPELVWSIVRRFDKPQTYKHFIKSCSVEQNFEMRVGCTRDVIVISGLPANTSTERLDILDDERRVTGFSIIGGEPRLTNYKSVTTVHRFEKENRIWTVVLESYVVDMPEGNSEDDTRMFADTVVKLNLQKLATVAEAMARNSGDGSGSQVT | x
16 | H115Q: PYR1 mutant (protein, UniProt O49686 1-191, looked up, variant H115Q) Abscisic acid receptor PYR1: MPSELTPEERSELKNSIAEFHTYQLDPGSCSSLHAQRIHAPPELVWSIVRRFDKPQTYKHFIKSCSVEQNFEMRVGCTRDVIVISGLPANTSTERLDILDDERRVTGFSIIGGEQRLTNYKSVTTVHRFEKENRIWTVVLESYVVDMPEGNSEDDTRMFADTVVKLNLQKLATVAEAMARNSGDGSGSQVT | x
17 | H115R: PYR1 mutant (protein, UniProt O49686 1-191, looked up, variant H115R) Abscisic acid receptor PYR1: MPSELTPEERSELKNSIAEFHTYQLDPGSCSSLHAQRIHAPPELVWSIVRRFDKPQTYKHFIKSCSVEQNFEMRVGCTRDVIVISGLPANTSTERLDILDDERRVTGFSIIGGERRLTNYKSVTTVHRFEKENRIWTVVLESYVVDMPEGNSEDDTRMFADTVVKLNLQKLATVAEAMARNSGDGSGSQVT | x
18 | H115S: PYR1 mutant (protein, UniProt O49686 1-191, looked up, variant H115S) Abscisic acid receptor PYR1: MPSELTPEERSELKNSIAEFHTYQLDPGSCSSLHAQRIHAPPELVWSIVRRFDKPQTYKHFIKSCSVEQNFEMRVGCTRDVIVISGLPANTSTERLDILDDERRVTGFSIIGGESRLTNYKSVTTVHRFEKENRIWTVVLESYVVDMPEGNSEDDTRMFADTVVKLNLQKLATVAEAMARNSGDGSGSQVT | x
19 | H115T: PYR1 mutant (protein, UniProt O49686 1-191, looked up, variant H115T) Abscisic acid receptor PYR1: MPSELTPEERSELKNSIAEFHTYQLDPGSCSSLHAQRIHAPPELVWSIVRRFDKPQTYKHFIKSCSVEQNFEMRVGCTRDVIVISGLPANTSTERLDILDDERRVTGFSIIGGETRLTNYKSVTTVHRFEKENRIWTVVLESYVVDMPEGNSEDDTRMFADTVVKLNLQKLATVAEAMARNSGDGSGSQVT | x
